Results on 2 proteins are retold here after PMC7307210, “Small sequence variations between two mammalian paralogs of the small GTPase SAR1 underlie functional differences in coat protein complex II assembly” (The Journal of Biological Chemistry, 2020).

This data set concerns the molecule itself. The data set is described as follows: liposome aggregation assay (nanoparticle tracking); 1 μg SAR1 with 100-nm liposomes and GMP-PNP in HKM buffer, 3 h at 37 °C; particle number and size by NanoSight; self-association on a membrane surface.

B1: SAR1B (natural protein)
chain: not shown
notes: human SAR1B, full-length (198 residues), with the N-terminal amphipathic helix; also called Secretion-associated Ras-related GTPase 1 B; source: E. coli, purified as GST fusion (GSH-agarose), eluted by thrombin cleavage
On to B1, for which the binding result is given as “binds”.

B2: SAR1A (natural protein)
chain: not shown
notes: human SAR1A, full-length (198 residues), with the N-terminal amphipathic helix; also called Secretion-associated Ras-related GTPase 1 A; source: E. coli, purified as GST fusion (GSH-agarose), eluted by thrombin cleavage
As to B2, the binding result is on record as “binds”.
